# From US20160324962A1, “COMPOSITIONS AND METHODS FOR TREATING SARCOMA” (MEDIMMUNE, LLC, priority 2013, published 2016)
# Legend:
# IGF-1R phosphorylation = assay: pIGF-1R assay in sarcoma cells (MSD); assay type: cell-based
# Experimental: When exogenous IGF-1 or IGF-2 was added to cells, there was an induction of phosphorylation of IGF-1R and IR-A in all cells examined.
# The sarcoma lines were cultured overnight in complete medium. The following day, medium containing 0.1% charcoal stripped fetal bovine serum (FBS) was added to the cultures and the cultures incubated overnight. The next day, cells were treated with various treatments for 5 minutes. Media was removed; cells were washed and lysed with 1.0% Triton X lysis buffer with protease and phosphatase inhibitors. Approximately 8-20 μg of total protein was loaded on MSD 96-Well MULTI-SPOT plates and the level of total and phosphorylated IGF-1R, IR-A and IRS-1 protein was determined using the Insulin Signaling Panel (total protein) and Insulin Signaling Panel (phosphoprotein) Whole Cell Lysate kits according to the manufacturers protocol. The level of total and phosphorylated AKT was determined using the Phospho (Ser473)/Total AKT Assay Whole Cell Lysate kit according to manufacturer's standard protocol.
# pAKT = assay: In vivo mechanism of action study, immunoblot of tumors; set-up: species or system mice
# Experimental: (§1) The in vivo effects of MEDI-573 on IGF signaling were also examined in sarcoma xenografts. To be consistent with in vitro experiments, in vivo pharmacodynamic studies were performed in two ways. First, the effect of MEDI-573 on signaling that was induced by IGF ligands, which were secreted by tumors in an autocrine manner, was examined. A single dose of MEDI-573 was given to mice bearing ˜400 mm^3 RD-ES, SJSA-1, or KHOS/NP tumors.
# (§2) IGF-1/-2 injection did change the baseline level of p4EBP-1.
# (§3) For in vivo mechanism of action (MOA) studies, when tumors reached approximately 400 mm^3, a single dose of MEDI-573 was given. Tumor and plasma samples were collected 4 hr after dosing to assess the effect of MEDI-573 on autocrine IGF signaling. In another set of mice, 6 hr after MEDI-573 dosing, human IGF-1 or IGF-2 was injected by tail-vein. Tumor and plasma samples were collected 15 min after IGFs injection to assess the effect of MEDI-573 on IGF-1/-2 induced signaling.
# p4EBP1 [1] = assay: as above; set-up: species or system mice
# Experimental: as §1, §2, §3
# human IGF-2 = target: T1, human IGF-2 (Homo sapiens, UniProt P01344); assay: IGF levels in tumor and plasma after injection of human IGF; assay type: in vivo, mice; details: RD-ES tumor lysates and plasma, intraperitoneal pretreatment for 6 hours, 15 min after IGF-2 injection
# T1 construct: purchased R&D Systems (Minneapolis, Minn.)
# T1 sequence (P01344 25-91 limits assumed): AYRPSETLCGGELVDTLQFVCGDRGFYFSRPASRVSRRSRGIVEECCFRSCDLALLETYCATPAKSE
# Experimental: (§4) Thus, human IGF-1 and IGF-2 (IGF-1/-2) were injected into mice in an attempt to understand the role of IGF ligands in driving tumor growth when delivered by endocrine or paracrine secretion, and the effect of MEDI-573 in inhibiting this function. Fifteen minutes after IGF-1 or IGF-2 injection, high levels of IGF-1 or IGF-2 were detected both in RD-ES tumor and plasma.
# as §3
# human IGF-1 = target: T2, human IGF-1 (Homo sapiens, UniProt P05019); assay: as above; assay type: in vivo, mice; details: RD-ES tumor lysates and plasma, intraperitoneal pretreatment for 6 hours, 15 min after IGF-1 injection
# T2 construct: purchased R&D Systems (Minneapolis, Minn.)
# T2 sequence (P05019 49-118 limits assumed): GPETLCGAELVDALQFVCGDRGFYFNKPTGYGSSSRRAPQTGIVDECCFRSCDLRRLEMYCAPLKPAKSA
# Experimental: as §4, §3
# IGF 1R phosphorylation = assay: IGF-stimulated phosphorylation in engineered NIH-3T3 cell lines; assay type: cell-based; details: NIH-3T3 cell lines expressing human IGF-1R and human IGF-1/-2
# Source text: (§5) MEDI 573 selectively binds to human insulin-like growth factor (hIGF)-I and hIGF-2 and […]. MEDI-573 targets the IGF-1 and IGF-2 ligands and thereby inhibits IGF-mediated signal transduction. […] Furthermore, MEDI-573 has potential to achieve this without perturbing glucose homeostasis, which has been an adverse effect observed with investigational agents that target IGF 1R. The results of in vitro studies have shown that MEDI-573 inhibited both IGF-1 and IGF-2-stimulated phosphorylation of IGF 1R and that of downstream signaling proteins including Akt and MAPK in a number of engineered mouse embryonic fibroblast NIH-3T3 cell lines transfected to express human IGF-1R and either human IGF-1/-2. Furthermore, MEDI-573 inhibited autocrine phosphorylation of these signaling molecules.
# [2] = test system: engineered NIH3T3 and human tumor cell lines; assay: In vitro growth of engineered and tumor cell lines; assay type: cell-based
# Source text: as §5
# p4EBP1 [3] = assay: Immunoblot of cell lysates after MEDI-573, mTORi, combination; assay type: cell-based; details: single agent, 4 hours
# Experimental: (§6) To examine the effect of MEDI-573, mTORi, and combination of both on IGF signaling, RD-ES, SJSA-1, and KHOS cells were treated with these agents for 4 hours. After separation of the cell lysates by gel electrophoresis, the proteins were detected by immunoblotting.
# pS6K = assay: as above; assay type: cell-based; details: RD-ES and SJSA-1 cells, 4 hours
# Experimental: as §6
# clone 32 (C32) tumors = assay: Growth of implanted tumors in mice; assay type: in vivo; details: C32 tumors overexpressing hIGF II and hIGF-1R
# Source text: as §5
# clone P12 (P12) tumors = assay: Growth of implanted tumors in mice; assay type: in vivo; details: P12 tumors overexpressing hIGF-1 and hIGF-1R
# Source text: as §5
# [4] = Body weight / tolerability in xenograft mice; assay type: in vivo; details: MEDI-573 alone
# Source text: Although proliferation of SK-ES-1 and SJCRH30 cells was inhibited by MEDI-573 in vitro in the absence of exogenous IGFs, the in vivo growth of these two models was not effected by MEDI-573 treatment.
# The combination treatments were tolerated as no significant body weight loss was observed (FIG. 17B).
# [5] = RD-ES tumors ~400 mm^3, single dose, 4 hr after dosing
# [6] = RD-ES-bearing mice injected with human IGF-1/-2, MEDI-573 pretreatment
molecule,measurement,setting,value
"MEDI-573: fully human monoclonal IgG2 lambda antibody that binds IGF-2 with cross reactivity to IGF-1; hybridoma 7.159.2, ATCC PTA-7424 (antibody) heavy: QVQLVQSGAEVKKPGASVKVSCKASGYTFTSYDINWVRQATGQGLEWMGWMNPNSGNTGYAQKFQGRVTMTRNTSISTAYMELSSLRSEDTAVYYCARDPYYYYYGMDVWGQGTTVTVSSASTKGPSVFPLAPCSRSTSESTAALGCLVKDYFPEPVTVSWNSGALTSGVHTFPAVLQSSGLYSLSSVVTVPSSNFGTQTYTCNVDHKPSNTKVDKTVERKCCVECPPCPAPPVAGPSVFLFPPKPKDTLMISRTPEVTCVVVDVSHEDPEVQFNWYVDGVEVHNAKTKPREEQFNSTFRVVSVLTVVHQDWLNGKEYKCKVSNKGLPAPIEKTISKTKGQPREPQVYTLPPSREEMTKNQVSLTCLVKGFYPSDIAVEWESNGQPENNYKTTPPMLDSDGSFFLYSKLTVDKSRWQQGNVFSCSVMHEALHNHYTQKSLSLSPGK light: QSVLTQPPSVSAAPGQKVTISCSGSSSNIENNHVSWYQQLPGTAPKLLIYDNNKRPSGIPDRFSGSKSGTSATLGITGLQTGDEADYYCETWDTSLSAGRVFGGGTKLTVLGQPKAAPSVTLFPPSSEELQANKATLVCLISDFYPGAVTVAWKADSSPVKAGVETTTPSKQSNNKYAASSYLSLTPEQWKSHRSYSCQVTHEGSTVEKTVAPTECS",autophosphorylation of IGF-1R,"IGF-1R phosphorylation; RD-ES, TC-71, SK-ES-1, and SJSA-1 cells",inhibited autophosphorylation
same,IGF-1/-2-induced activation of IGF-1R,"IGF-1R phosphorylation; pretreatment with MEDI-573, exogenous IGF-1 or IGF-2",inhibited
same,autophosphorylation of pAKT in tumors,"pAKT; KHOS/NP tumors, single dose",not in KHOS/NP tumors
same,autophosphorylation of pAKT in tumors,pAKT; [5],inhibited autophosphorylation
same,IGF-induced pAKT in tumors,pAKT; [6],dramatic reduction
same,phosphorylated p4EBP1 in tumors,"p4EBP1 [1]; KHOS/NP tumors, single dose",not in KHOS/NP tumors
same,phosphorylated p4EBP1 in tumors,p4EBP1 [1]; [5],inhibited
same,p4EBP-1 in tumors,p4EBP1 [1]; [6],inhibited p4EBP-1 even below the baseline level
same,reduction of IGF-2 levels,human IGF-2,almost completely
same,reduction of IGF-1 levels,human IGF-1,approximately 50%
same,IGF-1 and IGF-2-stimulated phosphorylation of IGF 1R,IGF 1R phosphorylation,inhibited
same,growth in vitro,[2],effectively inhibited the growth
same,phosphorylation of 4EBP1,p4EBP1 [3],did not have effect
same,phosphorylation of S6K,pS6K,inhibited phosphorylation of S6K
same,growth of implanted tumors,clone 32 (C32) tumors,significantly inhibited the growth
same,growth of implanted tumors,clone P12 (P12) tumors,significantly inhibited the growth
same,body weight,[4],no loss of body weight was observed
